Patent US7407939B2, “Protein kinase inhibitors comprising ATP mimetics conjugated to peptides or peptidomimetics” (CureGenics Ltd., priority 2001, dated 2008)
Where two headings read alike, the source gives them in different places. *1 amine or outer side, *2 acyl side, *3 side chain or, on linkers, in order; H or OH if unused. Where a SMILES comes first, the peptide text is derived from it. Where no end group is shown, it is not given here. Side-chain parts run from the residue outwards. [ ]: non-standard residue; d: D form. The star is where a group is joined. ξ: configuration not given here. SO2‑IQ = 5-aminoethylsulfoneamide isoquinoline, O=S(=O)(NCCN*)c1cccc2cnccc12; X1 = 5‑aminoethylsulfonamide isoquinoline, O=S(=O)(NCCN*)c1cccc2cnccc12; Isoquinoline5sulfonyl = O=S(=O)(c1cccc2cnccc12)*; Ethylenediamine = C(CN[*:2])N[*:1]; hLeu = CC(C)CC[C@H](N)C(=O)O; GltNH2 = not defined here; Nle = CCCC[C@H](N)C(=O)O; Orn = NCCC[C@H](N)C(=O)O; Dab = NCC[C@H](N)C(=O)O; Nva = CCC[C@H](N)C(=O)O; ξE = NC(CCC(=O)O)C(=O)O; Abu = CC[C@H](N)C(=O)O; Dap = NC[C@H](N)C(=O)O; Ph2 = not defined here; GlyNH2 = aminoglycine; βAla = NCCC(=O)O

Molecular target: T1, PKB (Homo sapiens, UniProt P31749)
T1 construct: His; HA; made in house
T1 sequence (P31749 whole entry, species assumed): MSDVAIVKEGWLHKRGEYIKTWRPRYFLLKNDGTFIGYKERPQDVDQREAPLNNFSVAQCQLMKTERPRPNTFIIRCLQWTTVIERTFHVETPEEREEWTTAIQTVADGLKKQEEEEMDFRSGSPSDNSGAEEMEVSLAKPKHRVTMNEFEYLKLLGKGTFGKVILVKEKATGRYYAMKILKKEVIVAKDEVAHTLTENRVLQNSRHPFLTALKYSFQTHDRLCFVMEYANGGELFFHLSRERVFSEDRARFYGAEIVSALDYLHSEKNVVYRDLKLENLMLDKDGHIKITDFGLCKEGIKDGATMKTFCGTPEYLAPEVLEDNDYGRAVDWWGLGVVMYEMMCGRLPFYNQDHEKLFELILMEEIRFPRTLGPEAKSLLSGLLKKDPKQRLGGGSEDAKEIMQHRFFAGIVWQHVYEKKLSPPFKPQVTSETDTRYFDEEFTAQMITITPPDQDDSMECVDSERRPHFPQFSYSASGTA
Assay: PKB in vitro kinase activity assay (soluble His-HA-PKB / SPA bead screening)
Type: biochemical
Set-up: % Inhibition PKB I / % Inhibition PKB II: concentration or dose not given beside the values
Settings: for PKB-kinase (spa) Assay 1, % inhibition of kinase activity / PKB-kinase (spa) Assay 2, % inhibition of kinase activity: 1 μM compound concentration; for % Inhibition PKB I / % Inhibition PKB II: plate screening, peptide moiety alone; for Activity PKB: Table 3, linear 7-mer peptides

[1] = chimeric PTR compounds (peptide conjugated to isoquinoline small molecule), read-out: PKB IC50

| Molecule | PKB-kinase (spa) Assay 1, % inhibition of kinase activity [%] | PKB-kinase (spa) Assay 2, % inhibition of kinase activity [%] | also measured |
| --- | --- | --- | --- |
| 60020-32: Arg-Pro-Arg-Nle-Glu(5-aminoethylsulfonamide isoquinoline)-Nva-Hol (RPR[Nle]E(X1)[Nva][hLeu]) | 12 | 32 |  |
| 60020-15: Arg-Pro-Arg-Orn-Glu(5-aminoethylsulfonamide isoquinoline)-Nva-Phe (RPR[Orn]E(X1)[Nva]F) | 31 | 44 |  |
| 60020-63: Arg-Pro-Arg-Nle-Glu(Gly-5-aminoethylsulfonamide isoquinoline)-Nva-Phe (RPR[Nle]E([Gly-X1])[Nva]F) | 17 | 19 |  |
| 60020-93: Arg-Pro-Arg-Nle-Glu(bAla-5-aminoethylsulfonamide isoquinoline)-Ala-Phe (RPR[Nle]E([βAla-X1])AF) | −12 | 58 |  |
| 60006-16A (RPR[Nva][GlyNH2][GltNH2][hLeu]; reading uncertain) [Compound 60006-16A] |  |  | % Inhibition PKB I: 42%; % Inhibition PKB II: 42% |
| 60002-50 (RPRTSA[hLeu]) [Compound 60002-50] |  |  | % Inhibition PKB I: 62% |
| 60020-62: Arg-Pro-Arg-Nle-Glu(Gly-5-aminoethylsulfonamide isoquinoline)-Ala-Hol (RPR[Nle]E([Gly-X1])A[hLeu]) | 29 | 38 |  |
| 60020-85: Arg-Pro-Arg-Abu-Glu(bAla-5-aminoethylsulfonamide isoquinoline)-Ala-Phe (RPR[Abu]E([βAla-X1])AF) | −27 | −2 |  |
| 60006-11B (RPR[Nva][GlyNH2][Dap][Ph2]; reading uncertain) [Compound 60006-11B] |  |  | % Inhibition PKB I: 51%; % Inhibition PKB II: 44% |
| 60020-76: Arg-Pro-Arg-Orn-Glu(bAla-5-aminoethylsulfonamide isoquinoline)-Orn-Hol (RPR[Orn]E([βAla-X1])[Orn][hLeu]) | 38 | 38 |  |
| 60020-87: Arg-Pro-Arg-Abu-Glu(bAla-5-aminoethylsulfonamide isoquinoline)-Nva-Phe (RPR[Abu]E([βAla-X1])[Nva]F) | −50 | 5 |  |
| 60020-96: Arg-Pro-Arg-Nle-Glu(bAla-5-aminoethylsulfonamide isoquinoline)-Nva-Hol (RPR[Nle]E([βAla-X1])[Nva][hLeu]) | 0 | 54 |  |
| 60020-80: Arg-Pro-Arg-Orn-Glu(bAla-5-aminoethylsulfonamide isoquinoline)-Nva-Hol (RPR[Orn]E([βAla-X1])[Nva][hLeu]) | 13 | 35 |  |
| 60006-7B (RPR[Nva][GlyNH2][Abu][hLeu]) [Compound 60006-7B] |  |  | % Inhibition PKB I: 53%; % Inhibition PKB II: 47% |
| 60020-24: Arg-Pro-Arg-Abu-Glu(5-aminoethylsulfonamide isoquinoline)-Nva-Hol (RPR[Abu]E(X1)[Nva][hLeu]) | −17 | −12 |  |
| 60020-18: Arg-Pro-Arg-Abu-Glu(5-aminoethylsulfonamide isoquinoline)-Dab-Hol (RPR[Abu]E(X1)[Dab][hLeu]) | 18 | 28 |  |
| 60020-84: Arg-Pro-Arg-Abu-Glu(bAla-5-aminoethylsulfonamide isoquinoline)-Orn-Hol (RPR[Abu]E([βAla-X1])[Orn][hLeu]) | 10 | 51 |  |
| 60020-22: Arg-Pro-Arg-Abu-Glu(5-aminoethylsulfonamide isoquinoline)-Ala-Hol (RPR[Abu]E(X1)A[hLeu]) | −5 | −2 |  |
| RPRRSSR [AR 60003-64, Arg-Pro-Arg-Arg-Ser-Ser-Arg] |  |  | Activity PKB: Not active |
| 60020-14: Arg-Pro-Arg-Orn-Glu(5-aminoethylsulfonamide isoquinoline)-Ala-Hol (RPR[Orn]E(X1)A[hLeu]) | 26 | 31 |  |
| 6106 (RPRT[Dap](SO2‑IQ)SF) [compound 6106] |  |  | IC50 [1]: 10 µM |

| Molecule | PKB-kinase (spa) Assay 1, % inhibition of kinase activity [%] | PKB-kinase (spa) Assay 2, % inhibition of kinase activity [%] | also measured |
| --- | --- | --- | --- |
| 60020-71: Arg-Pro-Arg-Dap-Glu(bAla-5-aminoethylsulfonamide isoquinoline)-Nva-Phe (RPR[Dap]E([βAla-X1])[Nva]F) | 32 | 46 |  |
| 60020-90: Arg-Pro-Arg-Nle-Glu(bAla-5-aminoethylsulfonamide isoquinoline)-Dab-Hol (RPR[Nle]E([βAla-X1])[Dab][hLeu]) | 19 | 27 |  |
| 60020-88: Arg-Pro-Arg-Abu-Glu(bAla-5-aminoethylsulfonamide isoquinoline)-Nva-Hol (RPR[Abu]E([βAla-X1])[Nva][hLeu]) | −50 | 31 |  |
| 60020-77: Arg-Pro-Arg-Orn-Glu(bAla-5-aminoethylsulfonamide isoquinoline)-Ala-Phe (RPR[Orn]E([βAla-X1])AF) | 13 | 15 |  |
| RPR[Orn]AT[Orn] [AR 60003-96] |  |  | Activity PKB: Not active |
| 60020-94: Arg-Pro-Arg-Nle-Glu(bAla-5-aminoethylsulfonamide isoquinoline)-Ala-Hol (RPR[Nle]E([βAla-X1])A[hLeu]) | 9 | 31 |  |
| CCC[C@H](NC(=O)[C@H](CCCNC(=N)N)NC(=O)[C@@H]1CCCN1C(=O)[C@@H](N)CCCNC(=N)N)C(=O)N[C@@H](CCC(=O)NCCNS(=O)(=O)c1cccc2cnccc12)C(=O)N[C@@H](C)C(=O)N[C@@H](CCC(C)C)C(N)=O [compound 6150] (H-RPR[Nva]E([Ethylenediamine-Isoquinoline5sulfonyl])A[hLeu]-NH2; N-terminus assumed) |  |  | IC50 [1]: 25 µM |
| C[C@@H](O)[C@H](NC(=O)[C@H](CCCNC(=N)N)NC(=O)[C@@H]1CCCN1C(=O)[C@@H](N)CCCNC(=N)N)C(=O)N[C@@H](CO)C(=O)NC(CCC(=O)NCCNS(=O)(=O)c1cccc2cnccc12)C(=O)N[C@@H](Cc1ccccc1)C(N)=O (stereo partly shown) [PTR 6014] (H-RPRTS[ξE]([Ethylenediamine-Isoquinoline5sulfonyl])F-NH2) |  |  | IC50 (Table 2, chimeric compounds, read-out: Activity PKB): 25 µM |
| 60020-19: Arg-Pro-Arg-Abu-Glu(5-aminoethylsulfonamide isoquinoline)-Orn-Phe (RPR[Abu]E(X1)[Orn]F) | 32 | 26 |  |
| 60020-21: Arg-Pro-Arg-Abu-Glu(5-aminoethylsulfonamide isoquinoline)-Ala-Phe (RPR[Abu]E(X1)AF) | −2 | 6 |  |
| 60020-66: Arg-Pro-Arg-Dap-Glu(bAla-5-aminoethylsulfonamide isoquinoline)-Dab-Hol (RPR[Dap]E([βAla-X1])[Dab][hLeu]) | 52 | 63 |  |
| 60020-78: Arg-Pro-Arg-Orn-Glu(bAla-5-aminoethylsulfonamide isoquinoline)-Ala-Hol (RPR[Orn]E([βAla-X1])A[hLeu]) | 21 | 24 |  |
| 60020-48: Arg-Pro-Arg-Orn-Glu(Gly-5-aminoethylsulfonamide isoquinoline)-Nva-Hol (RPR[Orn]E([Gly-X1])[Nva][hLeu]) | 10 | 22 |  |
| 60020-28: Arg-Pro-Arg-Nle-Glu(5-aminoethylsulfonamide isoquinoline)-Orn-Hol (RPR[Nle]E(X1)[Orn][hLeu]) | 27 | 31 |  |
| 60020-55: Arg-Pro-Arg-Abu-Glu(Gly-5-aminoethylsulfonamide isoquinoline)-Nva-Phe (RPR[Abu]E([Gly-X1])[Nva]F) | 20 | 40 |  |
| 60020-64: Arg-Pro-Arg-Nle-Glu(Gly-5-aminoethylsulfonamide isoquinoline)-Nva-Hol (RPR[Nle]E([Gly-X1])[Nva][hLeu]) | 25 | 26 |  |
| 60020-26: Arg-Pro-Arg-Nle-Glu(5-aminoethylsulfonamide isoquinoline)-Dab-Hol (RPR[Nle]E(X1)[Dab][hLeu]) | 17 | 18 |  |
| 60020-4: Arg-Pro-Arg-Dap-Glu(5-aminoethylsulfonamide isoquinoline)-Orn-Hol (RPR[Dap]E(X1)[Orn][hLeu]) | 34 | 53 |  |
| 60020-65: Arg-Pro-Arg-Dap-Glu(bAla-5-aminoethylsulfonamide isoquinoline)-Dab-Phe (RPR[Dap]E([βAla-X1])[Dab]F) | 32 | 30 |  |
| 60020-23: Arg-Pro-Arg-Abu-Glu(5-aminoethylsulfonamide isoquinoline)-Nva-Phe (RPR[Abu]E(X1)[Nva]F) | −3 | −8 |  |
